Laboratory results reported in patent US20220257784A1 (Bicycle, published 2022).
Starred links: 1 amine or outer side, 2 acyl side, 3 side chain; linkers in the order of their positions; H or OH if unused. Positions of bridges follow the written chain, without caps; N, C: chain ends. Non-standard residues stand in square brackets, D forms with d. No end group written: not given here. TATA = O=C(CC[*:1])N1CN(C(=O)CC[*:2])CN(C(=O)CC[*:3])C1; Ala(4-thiazolyl) = N[C@@H](Cc1cscn1)C(=O)O; Dip = N[C@H](C(=O)O)C(c1ccccc1)c1ccccc1; 1Nal = N[C@@H](Cc1cccc2ccccc12)C(=O)O; His(τ-Me) = Cn1cnc(C[C@H](N)C(=O)O)c1; d1Nal = N[C@H](Cc1cccc2ccccc12)C(=O)O; Hyp = O=C(O)[C@@H]1C[C@@H](O)CN1; hArg = N=C(N)NCCCC[C@H](N)C(=O)O; 2Thi = N[C@@H](Cc1cccs1)C(=O)O; 3Thi = N[C@@H](Cc1ccsc1)C(=O)O; Aad = N[C@@H](CCCC(=O)O)C(=O)O; His3Me = N3-methyl-L-histidine; Cysteamide = C(CS[*:3])N[*:1]; Cba = N[C@@H](CC1CCC1)C(=O)O; dNle = CCCC[C@@H](N)C(=O)O; NMeA = CN[C@@H](C)C(=O)O; Nle = CCCC[C@H](N)C(=O)O; Mpa = O=C(O)CCS

B1: BCY13129 (peptide)
peptide: [Mpa][Hyp]LVNPLCL[Dip]P[dD]WTC[dK]-NH2
modifications: linker (positions not given here) via TATA; not fully specified (bridges)
notes: Bicyclic peptide cyclised with TATA; the first reactive group is 3-mercaptopropionic acid in place of cysteine
B2: BCY13133 (peptide)
peptide: A[hArg]DC[Hyp]LVNPLCLHP[dD]W[hArg][Cysteamide]
modifications: linker (positions not given here) via TATA; not fully specified (bridges)
notes: Bicyclic peptide cyclised with TATA; the third reactive group is cysteamine in place of cysteine

Molecular target: T1, human EphA2 (human, UniProt P29317 25-534, limits assumed)
T1 construct: also called Eph receptor tyrosine kinase A2
Assay: fluorescence polarisation competition with tracer BCY90, human EphA2, mean of 6
Procedure: (§1) Peptides without a fluorescent tag were tested in competition with a peptide with a fluorescent tag and a known Kd.
(§2) Peptides were diluted to an appropriate concentration in assay buffer as described in the direct binding assay with a maximum of 5% DMSO, then serially diluted 1 in 2. […] Measurements were conducted, however the gain was determined prior to the first measurement. Data analysis was in Systat Sigmaplot version 12.0 where the mP values were fit to a user defined cubic equation to generate a Ki value: […]

T1 sequence (P29317 25-534 limits assumed): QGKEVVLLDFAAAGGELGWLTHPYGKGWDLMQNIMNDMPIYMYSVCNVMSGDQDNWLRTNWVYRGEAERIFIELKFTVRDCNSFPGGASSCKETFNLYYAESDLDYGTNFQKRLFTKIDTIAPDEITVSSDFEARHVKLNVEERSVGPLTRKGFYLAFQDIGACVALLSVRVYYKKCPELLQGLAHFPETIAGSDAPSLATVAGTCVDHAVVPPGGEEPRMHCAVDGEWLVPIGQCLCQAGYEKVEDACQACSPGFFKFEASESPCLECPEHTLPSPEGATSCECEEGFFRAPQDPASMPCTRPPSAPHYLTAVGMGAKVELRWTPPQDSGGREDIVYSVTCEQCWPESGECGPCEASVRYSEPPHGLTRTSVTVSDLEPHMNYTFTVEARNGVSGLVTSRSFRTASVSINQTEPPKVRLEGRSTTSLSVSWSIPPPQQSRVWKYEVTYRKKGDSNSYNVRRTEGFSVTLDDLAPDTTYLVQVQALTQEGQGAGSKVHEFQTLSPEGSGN

**Q.** Which Ki does the source give for A[hArg]DC[Hyp][Cba]VNPLCLHP[dD]W[hArg]C-NH2 (linker 4-11-18 via TATA, Bicyclic peptide cyclised with TATA) [BCY12862] here?
**A.** 1.22 nM

**Q.** How did the Ki turn out when A[hArg]DC[Hyp]LVNPLCLEP[dA]WTC-NH2 (linker 4-11-18 via TATA, Bicyclic peptide cyclised with TATA) [BCY12858] was run?
**A.** 8.19 nM

**Q.** How did the Ki turn out when A[hArg]DC[Hyp]LVNPLCLHP[dD]WTC-NH2 (linker 4-11-18 via TATA, Bicyclic peptide cyclised with TATA) [BCY12855] was run?
**A.** 5.55 nM

**Q.** How did the Ki turn out when ADC[Hyp]LVNPLCLEP[dD]WTC-NH2 (linker 3-10-17 via TATA, Bicyclic peptide cyclised with TATA) [BCY13128] was run?
**A.** 16.1 nM

**Q.** Which Ki does the source give for A[hArg]DC[Hyp]LVNPLC[Aad]HP[dD]W[hArg]C-NH2 (linker 4-11-18 via TATA, Bicyclic peptide cyclised with TATA) [BCY13131] here?
**A.** 27.1 nM

**Q.** Which Ki does the source give for A[hArg]DC[Hyp]LVNPLCL[3Thi]P[dD]W[hArg]C-NH2 (linker 4-11-18 via TATA, Bicyclic peptide cyclised with TATA) [BCY13923] here?
**A.** 1.32 nM

**Q.** A[hArg]DC[Hyp]LVNPLCL[His(τ-Me)]P[dD]W[hArg]C-NH2 (linker 4-11-18 via TATA, Bicyclic peptide cyclised with TATA) [BCY13918] was tested. Which Ki did it give?
**A.** 2.62 nM

**Q.** For C[Hyp]LVNPLCL[Dip]P[dD]WTC-NH2 (linker 1-8-15 via TATA, Bicyclic peptide cyclised with TATA) [BCY12860], which Ki is on record?
**A.** 0.66 nM

**Q.** With A[hArg]DC[Hyp][Cba]VNPLCLEP[dD]WTC-NH2 (linker 4-11-18 via TATA, Bicyclic peptide cyclised with TATA) [BCY12863] as the binder, how does the Ki read?
**A.** 5.84 nM

**Q.** Which Ki does the source give for Ac-C[Hyp]LVNPLCLHP[dD]W[hArg]CL[dH]G[dK]-NH2 (linker 1-8-15 via TATA, Bicyclic peptide cyclised with TATA) [BCY13125] here?
**A.** 1.83 nM

**Q.** With C[Hyp][Cba]VNPLCL[Dip]P[dD]WTC[dA]-NH2 (linker 1-8-15 via TATA, Bicyclic peptide cyclised with TATA) [BCY12865] as the binder, how does the Ki read?
**A.** 0.857 nM

**Q.** Which Ki does the source give for A[hArg]DC[Hyp]LVNPLCLEP[d1Nal]WTC-NH2 (linker 4-11-18 via TATA, Bicyclic peptide cyclised with TATA) [BCY13118] here?
**A.** 5.42 nM

**Q.** For A[hArg]DC[Hyp]LVNPLCLHP[dNle]W[hArg]C-NH2 (linker 4-11-18 via TATA, Bicyclic peptide cyclised with TATA) [BCY13134], which Ki is on record?
**A.** 1.16 nM

**Q.** For A[hArg]DC[Hyp][Aad]VNPLCLHP[dD]W[hArg]C-NH2 (linker 4-11-18 via TATA, Bicyclic peptide cyclised with TATA) [BCY13130], which Ki is on record?
**A.** 7.8 nM

**Q.** With Ac-C[Hyp]LVNPLCL[Dip]P[dD]WTC[dK]-NH2 (linker 1-8-15 via TATA, Bicyclic peptide cyclised with TATA) [BCY13120] as the binder, how does the Ki read?
**A.** 0.916 nM

**Q.** How did the Ki turn out when B1 was run?
**A.** 1.88 nM

**Q.** How did the Ki turn out when A[hArg]DC[Hyp]LVNPLCLEP[dD]WTC[dA]-NH2 (linker 4-11-18 via TATA, Bicyclic peptide cyclised with TATA) [BCY12857] was run?
**A.** 16 nM

**Q.** With A[hArg]DC[Hyp]LVNPLCL[Nle]P[dD]W[hArg]C-NH2 (linker 4-11-18 via TATA, Bicyclic peptide cyclised with TATA) [BCY13135] as the binder, how does the Ki read?
**A.** 0.894 nM

**Q.** [dA][hArg]DC[Hyp][Cba]VNPLCLEP[dD]WTC[dA]-NH2 (linker 4-11-18 via TATA, Bicyclic peptide cyclised with TATA) [BCY12864] was tested. Which Ki did it give?
**A.** 9.29 nM

**Q.** How did the Ki turn out when [dA][hArg]DC[Hyp][Cba]VNPLCLEP[dA]WTC[dA]-NH2 (linker 4-11-18 via TATA, Bicyclic peptide cyclised with TATA) [BCY13123] was run?
**A.** 6.44 nM

**Q.** A[hArg]DC[Hyp]LVNPLCL[His3Me]P[dD]W[hArg]C-NH2 (linker 4-11-18 via TATA, Bicyclic peptide cyclised with TATA) [BCY13917] was tested. Which Ki did it give?
**A.** 1.72 nM

**Q.** Which Ki does the source give for [d1Nal][hArg]DC[Hyp][Cba]VNPLCLEP[dA]WTC[dA]-NH2 (linker 4-11-18 via TATA, Bicyclic peptide cyclised with TATA) [BCY13124] here?
**A.** 7.62 nM

**Q.** With [NMeA][hArg]DC[Hyp]LVNPLCLHP[dD]W[hArg]C-NH2 (linker 4-11-18 via TATA, Bicyclic peptide cyclised with TATA) [BCY13121] as the binder, how does the Ki read?
**A.** 1.49 nM

**Q.** How did the Ki turn out when A[hArg]DC[Hyp]LVNPLCL[2Thi]P[dD]W[hArg]C-NH2 (linker 4-11-18 via TATA, Bicyclic peptide cyclised with TATA) [BCY13922] was run?
**A.** 1.14 nM

**Q.** C[Hyp]LVNPLCLEP[dD]WTC[dA]-NH2 (linker 1-8-15 via TATA, Bicyclic peptide cyclised with TATA) [BCY12861] was tested. Which Ki did it give?
**A.** 21.7 nM

**Q.** How did the Ki turn out when B2 was run?
**A.** 3.24 nM

**Q.** With A[hArg]DC[Hyp]LVNPLCL[Ala(4-thiazolyl)]P[dD]W[hArg]C-NH2 (linker 4-11-18 via TATA, Bicyclic peptide cyclised with TATA) [BCY13919] as the binder, how does the Ki read?
**A.** 2.1 nM

**Q.** [dA]EDC[Hyp]LVNPLCLEP[dD]WTC-NH2 (linker 4-11-18 via TATA, Bicyclic peptide cyclised with TATA) [BCY13126] was tested. Which Ki did it give?
**A.** 25.3 nM

**Q.** [dA][dA]DC[Hyp]LVNPLCLEP[dD]WTC-NH2 (linker 4-11-18 via TATA, Bicyclic peptide cyclised with TATA) [BCY13127] was tested. Which Ki did it give?
**A.** 14.9 nM

**Q.** Which Ki does the source give for A[hArg]DC[Hyp]LVNPLCLEP[dD]W[hArg]C-NH2 (linker 4-11-18 via TATA, Bicyclic peptide cyclised with TATA) [BCY12854] here?
**A.** 9.34 nM

**Q.** How did the Ki turn out when A[hArg]DC[Hyp]LVNPLCLFP[dD]W[hArg]C-NH2 (linker 4-11-18 via TATA, Bicyclic peptide cyclised with TATA) [BCY13920] was run?
**A.** 0.641 nM

**Q.** How did the Ki turn out when A[hArg]DC[Hyp]LVNPLCLNP[dD]W[hArg]C-NH2 (linker 4-11-18 via TATA, Bicyclic peptide cyclised with TATA) [BCY14047] was run?
**A.** 3.88 nM

**Q.** How did the Ki turn out when A[hArg]DC[Hyp]LVNPLCLQP[dD]W[hArg]C-NH2 (linker 4-11-18 via TATA, Bicyclic peptide cyclised with TATA) [BCY14048] was run?
**A.** 4.1 nM

**Q.** A[hArg]DC[Hyp]LVNPLCL[Aad]P[dD]W[hArg]C-NH2 (linker 4-11-18 via TATA, Bicyclic peptide cyclised with TATA) [BCY13132] was tested. Which Ki did it give?
**A.** 7.08 nM

Molecular target: T1, human EphA2
Assay: fluorescence polarisation competition with tracer BCY90, human EphA2, mean of 8
Procedure: as §1, §2

**Q.** A[hArg]DC[Hyp]LVNPLCLHP[d1Nal]W[hArg]C-NH2 (linker 4-11-18 via TATA, Bicyclic peptide cyclised with TATA) [BCY13116] was tested. Which Ki did it give?
**A.** 1.13 nM

**Q.** How did the Ki turn out when [NMeA][hArg]DC[Hyp]LVNPLCLEP[dD]WTC-NH2 (linker 4-11-18 via TATA, Bicyclic peptide cyclised with TATA) [BCY13122] was run?
**A.** 7.8 nM

**Q.** How did the Ki turn out when A[hArg]DC[Hyp]LVNPLCLEP[dD]WTC-NH2 (linker 4-11-18 via TATA, Bicyclic peptide cyclised with TATA) [BCY12856] was run?
**A.** 4.63 nM

**Q.** For A[hArg]DC[Hyp]LVNPLCL[1Nal]P[dD]W[hArg]C-NH2 (linker 4-11-18 via TATA, Bicyclic peptide cyclised with TATA) [BCY13117], which Ki is on record?
**A.** 1.12 nM

**Q.** With A[hArg]DC[Hyp]LVNPLCL[Dip]P[dD]WTC-NH2 (linker 4-11-18 via TATA, Bicyclic peptide cyclised with TATA) [BCY12859] as the binder, how does the Ki read?
**A.** 0.723 nM

**Q.** For C[Hyp]LVNPLCL[1Nal]P[dD]WTC-NH2 (linker 1-8-15 via TATA, Bicyclic peptide cyclised with TATA) [BCY13119], which Ki is on record?
**A.** 2.64 nM

Molecular target: T1, human EphA2
Assay: fluorescence polarisation competition with tracer BCY90, human EphA2, mean of 10
Procedure: as §1, §2

**Q.** How did the Ki turn out when A[hArg]DC[Hyp]LVNPLCL[Dip]P[dD]W[hArg]C-NH2 (linker 4-11-18 via TATA, Bicyclic peptide cyclised with TATA) [BCY12866] was run?
**A.** 0.244 nM

Molecular target: T1, human EphA2
Assay: fluorescence polarisation competition with tracer BCY90, human EphA2, mean of 38
Procedure: as §1, §2

**Q.** Which Ki does the source give for A[hArg]DC[Hyp]LVNPLCLHP[dD]W[hArg]C-NH2 (linker 4-11-18 via TATA, Bicyclic peptide cyclised with TATA) [BCY9594] here?
**A.** 1.44 nM
